These results are taken from article PMC10808242, “Antibodies from dengue patients with prior exposure to Japanese encephalitis virus are broadly neutralizing against Zika virus” (Communications Biology, 2024).

For assay [1], the target named is DENV-1 virus-like particle (prM/E VLP) (dengue virus serotype 1).
In assay [2] the target is ZIKV VLP with E R193A (Zika virus). Briefly: ELISA.
Assay [3] concerns the target ZIKV VLP with E T231A (Zika virus). Description: ELISA.
Assay [4] concerns the target T1, mature form virus-like particles of dengue virus serotype 2 (mD2VLP) (Dengue virus type 2, strain 16681 …, UniProt A0A173DS53).
T1 construct: also called mature DENV-2 VLP; pVD2i-C18S; copies: 60 +
Briefly: cryo-EM structure. To be noted: both partners purified.

B1: huMAb K5 expressed as full-length human IgG1 (K5-IgG1) (antibody, V domains shown)
VH: EVQLLESGAEVKKPGSSVKVSCQASGDTFSNSDINWVRQAPGQGLEWMGGIIPAYDTTNYARTFQGRVAITADKSTSTVYMELSRLRSEDTAVYYCATDQRDYFGLGNHFNAQHFWGQGTLVTVSS
VL: AIRMTQTPLSLSASVGDRVTITCRASQSISNYLNWYQQRPGKAPNLLIYTASNLHSGVPSRFSGSGSGTDFTLTISSLQPEDFATYYCQQSYSGGYTFGQGPSWEIK
In turn, B1 showed an FRμNT50, neutralisation of the prototype DENV-1 strain on Vero cells in assay [1] of 0.771 µg/mL. Besides, the percent loss of binding relative to ZIKV WT VLP in assay [2] and in assay [3] was 70% in each case.

B2: huMAb K8b expressed as full-length human IgG1 (K8b-IgG1) (antibody, V domains shown)
VH: QVQLVQPGAEVVKPGASVKLSCKTSGYTFTSNWMHWVKQAPGQGLEWIGEIDPSDSYTNYNQNFQGKAKLTVDKSTSTAYMEVSSLRSDDTAVYYCARGSNPYYYAMDYWGQGTSVTVSS
VL: EIVMMQSPLTLSLSPGERATLSCRASQSVSSNYLAWYQQRPGQAPRLLIYGVSSRATGVPVRFSGSGSGTDFTLTISRLEPEDFAVYYCQHYGGSLSWTFGQGTKVEIK
notes: also called pVCHIg-hG1-K8b + pVCLIg-hκ-K8b
B2: the “stoichiometry N” value in assay [4] was 60 F(ab) arms per VLP of 60 E proteins.
